Data: patent US9926214B2, “Use of peracetic acid/hydrogen peroxide and peroxide-reducing agents for treatment of drilling fluids, frac fluids, flowback water and disposal water” (Ecolab USA Inc., priority 2012, dated 2018)
Where two headings read alike, the source gives them in different places.

Experiments:
[1] = assay type: physicochemical
Protocol: Field of use applications were analyzed to determine the amount of a peroxide-reducing enzyme necessary to obtain desired concentrations of both peracid and hydrogen peroxide in a treated water source. EnviroSan (POAA) peracid composition was added to water to reach the targeted POAA concentrations set forth in Table 18, and the concentration of both POAA and H2O2 were confirmed by iodometric titration. Then catalase (ES2000) was added to the solution, and the sample was stored under ambient conditions. The concentration of POAA and H2O2 were monitored by the iodometric conditions.

[2] = Example 21 hydrogen peroxide decomposition with sequenced POAA and hypochlorite in deionized and contaminated water; assay type: physicochemical; conditions: water not containing any biological contamination
From the text: Additional evaluation of the process of using peroxide-reducing agents in sequence was further analyzed as shown in Table 32 using additional water samples, including deionized water (i.e. not contaminated), and the Control (as set forth above as a contaminated water source).
The peracetic acid and sodium hypochlorite are indistinguishable in titration, and are therefore presumed to consist of ½ of the titrateable material; however the focus of the evaluation was solely on the hydrogen peroxide decomposition.

[3] = Catalase 0.5 ppm, Time 1 hr, run starting at 14.6 ppm POAA
[4] = Catalase 1.0 ppm, Time 1 hr, run starting at 30.1 ppm POAA

Q: With catalase as the compound, how does the “selectivity of H2O2 decomposition versus POAA stability” value [1] read?
A: selectively decomposes the H2O2 without having any negative impact on POAA stability

Q: And the “H2O2(ppm)” value ([1]; Catalase 0.5 ppm, Time 0 hr, run starting at 14.6 ppm POAA)?
A: 12.0 ppm

Q: What about the “H2O2(ppm)” value [1, 3] of the same compound?
A: 7.5 ppm

Q: What about the “POAA (ppm)” value [1, 3] of the same compound?
A: 15.0 ppm

Q: What about the “POAA (ppm)” value ([1]; Catalase 0.5 ppm, Time 1 hr, run starting at 31.1 ppm POAA) of the same compound?
A: 32.0 ppm

Q: What about the “H2O2(ppm)” value ([1]; Catalase 0.5 ppm, Time 2 hr, run starting at 14.6 ppm POAA) of the same compound?
A: 6.5 ppm

Q: And the “H2O2(ppm)” value ([1]; Catalase 0.5 ppm, Time 2 hr, run starting at 31.1 ppm POAA)?
A: 7.8 ppm

Q: What about the “H2O2(ppm)” value ([1]; Catalase 0.5 ppm, Time 3.6 hr, run starting at 14.6 ppm POAA) of the same compound?
A: 1.8 ppm

Q: What about the “H2O2(ppm)” value ([1]; Catalase 0.5 ppm, Time 3.6 hr, run starting at 31.1 ppm POAA) of the same compound?
A: 3.4 ppm

Q: And the “H2O2(ppm)” value ([1]; Catalase 1.0 ppm, Time 1 hr, run starting at 14.8 ppm POAA)?
A: 3.7 ppm

Q: And the “H2O2(ppm)” value [1, 4]?
A: 7.6 ppm

Q: What about the “POAA (ppm)” value [1, 4] of the same compound?
A: 31.0 ppm

Q: What about the “H2O2(ppm)” value ([1]; Catalase 1.0 ppm, Time 2 hr, run starting at 14.8 ppm POAA) of the same compound?
A: 1.1 ppm

Q: What about the “H2O2(ppm)” value ([1]; Catalase 1.0 ppm, Time 2 hr, run starting at 30.1 ppm POAA) of the same compound?
A: 2.3 ppm

Q: And the “H2O2(ppm)” value ([1]; Catalase 1.0 ppm, Time 3.6 hr, run starting at 14.8 ppm POAA)?
A: 0.4 ppm

Q: What about the “H2O2(ppm)” value ([1]; Catalase 1.0 ppm, Time 3.6 hr, run starting at 30.1 ppm POAA) of the same compound?
A: 0.0 ppm

Q: And the “lowest catalase concentration treating pond water with POAA and H2O2” value ([1]; within 4 hours, ambient conditions)?
A: 0.5 ppm

Q: For `OCl` [hypochlorite, sodium hypochlorite], which “impact on the decomposition of hydrogen peroxide” value [2] is on record?
A: efficacious impact on the decomposition of hydrogen peroxide
